Results reported in doi:10.1101/2023.09.14.557805, “Determinants of DDX3X sensitivity uncovered using a helicase activity in translation reporter” (bioRxiv, 2023).

Target: T1, S. cerevisiae eIF4E (S. cerevisiae, UniProt P07260 1-213)
T1 construct: eIF4E of S. cerevisiae; 15N isotope labelled; m7GTP added to 250 μM in the NMR sample; source: E. coli BL21-star, purified (nickel resin, TEV cleavage, m7G cap resin)
T1 sequence (looked up): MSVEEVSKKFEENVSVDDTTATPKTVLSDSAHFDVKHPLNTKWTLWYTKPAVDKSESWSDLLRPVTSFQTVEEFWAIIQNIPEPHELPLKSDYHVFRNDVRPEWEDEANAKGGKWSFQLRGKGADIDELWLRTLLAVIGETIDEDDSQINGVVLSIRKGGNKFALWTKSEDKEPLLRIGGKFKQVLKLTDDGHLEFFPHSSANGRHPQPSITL
Assay: NMR titration; 15N HSQC of 200 μM 15N eIF4E with 250 μM m7GTP, peptide added to 1 mM; 50 mM phosphate pH 6.5, 50 mM KCl, 10% D2O, 298 K, 900 MHz
Conditions: both partners purified

- binding result: binds
B1: 4E-BP1 peptide (human 4E-BP1 amino acids 51–67) (peptide)
peptide: RIIYDRKFLMECRNSPV
notes: 4E-BP1, human, amino acids 51–67; Dissolved at 50 mM in DMSO; source: synthetic peptide (Elim Bio)
